In paper PMC3103399 (Molecular Biology of the Cell, 2011):
Non-standard residues stand in square brackets, D forms with d. No end group written: not given here. pY = N[C@@H](Cc1ccc(OP(=O)(O)O)cc1)C(=O)O

Target: T1, GST-nephrin-CD (residues 1102–1252) (rat, UniProt Q9R044 1102-1252)
T1 sequence (looked up): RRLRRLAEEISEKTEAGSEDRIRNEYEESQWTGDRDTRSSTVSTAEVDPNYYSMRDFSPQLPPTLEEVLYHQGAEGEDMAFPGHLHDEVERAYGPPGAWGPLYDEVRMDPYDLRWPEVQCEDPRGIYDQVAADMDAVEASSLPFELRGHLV
Test: pull-down

binding result: binds
Binder: CLASPA[pY]LSLSSE [phosphorylated TRPC6 Y284 peptide]
